According to publication PMC9666535:

Molecular target: PCNA N107C labeled with Cy5 (human) (UniProt P12004)
Test: native gel or EMSA; protein-protein EMSA in solution, no DNA: 1 nM PCNA-Cy5 with increasing Polδ Exo^− or Lig1, 20 min at RT, 6% non-denaturing TBE-PAGE; bound PCNA fitted to a quadratic isotherm

Chain of PCNA N107C labeled with Cy5 (human) (P12004 whole entry N107C): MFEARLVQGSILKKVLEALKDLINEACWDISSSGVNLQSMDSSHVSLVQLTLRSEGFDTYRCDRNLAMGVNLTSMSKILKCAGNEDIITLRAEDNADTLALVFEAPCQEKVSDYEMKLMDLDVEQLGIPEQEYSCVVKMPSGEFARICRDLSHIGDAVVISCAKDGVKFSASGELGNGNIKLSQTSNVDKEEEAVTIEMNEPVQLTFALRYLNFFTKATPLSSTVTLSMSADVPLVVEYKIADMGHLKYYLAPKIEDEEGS

## Polδ Exo^− (D515V in p125) (from UniProt P28340 1-1107; Q9HCU8 1-107) (complex)
  Kd: 15 nM
